# Measured values as given in patent US20100273160A1.
# T1: MIS type II receptor (MISRII) on mouse ovarian cancer cell lines MOVCAR 7 and 4306 (mouse) (UniProt Q8K592)
# T1 sequence (looked up): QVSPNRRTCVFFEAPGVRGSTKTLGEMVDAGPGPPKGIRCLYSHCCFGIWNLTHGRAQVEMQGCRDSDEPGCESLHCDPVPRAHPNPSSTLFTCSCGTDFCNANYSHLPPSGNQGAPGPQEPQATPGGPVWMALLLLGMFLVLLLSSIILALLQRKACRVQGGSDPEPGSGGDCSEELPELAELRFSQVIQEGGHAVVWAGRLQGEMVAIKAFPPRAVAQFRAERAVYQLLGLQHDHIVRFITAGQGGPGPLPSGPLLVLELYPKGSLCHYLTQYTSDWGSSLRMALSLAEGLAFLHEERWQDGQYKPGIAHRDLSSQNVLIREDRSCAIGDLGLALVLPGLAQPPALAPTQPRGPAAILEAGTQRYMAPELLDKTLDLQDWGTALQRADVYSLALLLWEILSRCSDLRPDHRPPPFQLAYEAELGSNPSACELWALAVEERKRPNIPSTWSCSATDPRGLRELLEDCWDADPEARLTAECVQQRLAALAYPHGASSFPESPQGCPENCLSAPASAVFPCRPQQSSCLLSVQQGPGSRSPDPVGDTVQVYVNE
# Target: T1, MIS type II receptor (MISRII) on mouse ovarian cancer cell lines MOVCAR 7 and 4306 (mouse)
# Assay: cell-based or functional assay
binder,measurement,value
recombinant human Mullerian Inhibiting Substance (MIS) (ligand) LRAEEPAVGTSGLIFREDLDWPPGSPQEPLCLVALGGDSNGSSSPLRVVGALSAYEQAFLGAVQRARWGPRDLATFGVCNTGDRQAALPSLRRLGAWLRDPGGQRLVVLHLEEVTWEPTPSLRFQEPPPGGAGPPELALLVLYPGPGPEVTVTRAGLPGAQSLCPSRDTRYLVLAVDRPAGAWRGSGLALTLQPRGEDSRLSTARLQALLFGDDHRCFTRMTPALLLLPRSEPAPLPAHGQLDTVPFPPPRPSAELEESPPSADPFLETLTRLVRALRVPPARASAPRLALDPDALAGFPQGLVNLSDPAALERLLDGEEPLLLLLRPTAATTGDPAPLHDPTSAPWATALARRVAAELQAAAAELRSLPGLPPATAPLLARLLALCPGGPGGLGDPLRALLLLKALQGLRVEWRGRDPRGPGRAQRSAGATAADGPCALRELSVDLRAERSVLIPETYQANNCQGVCGWPQSDRNPRYGNHVVLLLKMQARGAALARPPCCVPTAYAGKLLISLSEERISAHHVPNMVATECGCR,"MTT proliferation assay, 4306 SP cells after first sort, 10 µg/ml MIS, inhibition versus vehicle",37%
same,"MTT proliferation assay, 4306 SP cells after sort 2, MIS, inhibition",60%
same,"MTT proliferation assay, 4306 SP cells after sort 3, MIS, inhibition (not significant)",17%
same,"MTT proliferation assay, MOVCAR 7 NSP cells after first sort, 10 µg/ml MIS, inhibition versus vehicle",93%
same,"MTT proliferation assay, MOVCAR 7 SP cells after first sort, 10 µg/ml MIS, inhibition versus vehicle",86%
same,"MTT proliferation assay, MOVCAR 7 SP cells after sort 2, MIS, inhibition",93%
same,"MTT proliferation assay, MOVCAR 7 SP cells after sort 3, MIS, inhibition",94%
